Laboratory results from the supplement of paper PMC9170038.

System: K4 kissing-loop RNA reporter
Experiment: apparent KD of K4 kissing-loop reporter; higher = weaker reporter binding
Details: Eterna round: R107
Experimental: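 RNA-MaP round R107: designed RNA switches with theophylline, tryptophan, arginine or FMN aptamers are transcribed on-chip within common flanks. They are titrated with a labelled K4 kissing-loop RNA reporter in RNA-MaP buffer (100 mM Tris pH 7.5, 80 mM KCl, 4 mM MgCl2), without ligand or with the indicated ligand. Median apparent KD per design.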

[1] = input ligand: theophylline 20 uM
[2] = input ligand: tryptophan 2.4 mM
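Further: bound reporter read as fluorescence of individual clusters on recovered sequencing chips by microscopy, with normalized cluster intensities fitted with a binding model.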

Row | Sequence | apparent KD of K4 kissing-loop reporter (input ligand: FMN 200 uM) [nM] | apparent KD of K4 kissing-loop reporter (input ligand: arginine 13.2 mM) [nM] | apparent KD of K4 kissing-loop reporter (input ligand: none) [nM] | apparent KD of K4 kissing-loop reporter [1] [nM] | apparent KD of K4 kissing-loop reporter [2] [nM]
1 | GCACUUCUCAGUGAUGUUGAGUAAUCGGAAGGAGCGCGUGAAAACGCAGGUAGGUCGCCGAUACAUGAAGUAUCUUCGUGUGUGC [Arginine A K4 25] | 306 | 235 | 295 | 279 | 216
2 | GCAGGACGAGGAGGAGGAUGAAUUACUGAAGGAGCGCAUAUUUUUGCAGGUAGGUCGCGGUAAAGAAGUAUAGUGAUGUUAUAUA [SSArgA.L] | 482 | 476 | 470 | 406 | 408
3 | GCAGUCAAUCGACCACGAAAGUGGAUGGAUACCAGCCCGAAACCGGGCCCUUGGCAGCCAGUGAUGUUGGAAGACUGCUUUAAAA [#SwitchBubble 14 #K4Late] | 371 | 372 | 548 | 216 | 660
4 | GCAGUGAUGUUGCAACCGCGUACGAUGCCUCGAGGACCGGUACGGCCGCCACUCGUCCUGGUUCAGGAGCUACAGACAUAGCUCA [theeternabot_sameState_KL_Trp_A_2] | 563 | 271 | 781 | 408 | 291
5 | GCAGUGAUGUUGCGCAGGUACAGUGGAGUGCGAGGACCGGUACGGCCGCCACUCGUACAGAACUAGCUAAUGUAUGGAUAGGUGA [#11 K4 Tryptophan A Same State] | 354 | 329 | 368 | 470 | 312
6 | GCAGUGAUGUUGCGCGGGUACAGUGGAGUGCGAGGACCGGUACGGCCGCCACUCGUACAGAACUGGCUAAUAUAUGGAUAGGUGA [VII] | 271 | 169 | 305 | 169 | 210
7 | GCAUGACGGUAAGGAUAUAGAUAAUCCUUAUAUACGUCGAGUGAUGUUCGAUGUGCCAAGGCACAUCUAGAAGGUACUGUUAGGU [Same State FMN B GF 18] | 772 | 760 | 1020 | 725 | 873
8 | GCCGUACGCAUGGAUACCAGACAACCAUUCUAAAUUUUGUGUCCGGUAGUGAUGUUACCUGUCCCUUGGCAGCCAUGCGUACGGC | 306 | 261 | 319 | 317 | 338
9 | GCCGUACGCAUGGAUACCAGAUCUAGACGCUUAGUGAUGUUAAGUAAUCUGGUUAGACCGAUCCCUUGGCAGCCAUGCGUACGGC | 270 | 199 | 229 | 203 | 200
10 | GCCGUACGCAUGGAUACCAGAUGGCACUAUAAUCUACCAGAGUGAUGUUCUGGCCUGCCCAUCCCUUGGCAGCCAUGCGUACGGC | 293 | 199 | 287 | 171 | 206
11 | GCCGUACGCAUGGAUACCAGCAAGUAUAUAUGCUAGUGAUGUUAGCGCUAUGCGAUGCGGUGCCCUUGGCAGCCAUGCGUACGGC | 129 | 85.2 | 105 | 106 | 102
12 | GCCGUACGCAUGGAUACCAGCAAUUAUGCUCGUAUCCUAGUGAUGUUAGUGGCGAAUAUUUGCCCUUGGCAGCCAUGCGUACGGC | 1080 | 841 | 1160 | 691 | 936
13 | GCCGUAGAUGGAAGGAGCGUGGUGGACUCGUGAAGUGAUGUUUCAAGUCGUUAUGCCCAACCACAGGUAGGUCGCCAUCUACGGC | 277 | 204 | 270 | 231 | 251
14 | GCCGUAGAUGGAAGGAGCGUGGUUAAUGUAAGUGAUGUUUACGAGGUUAACAAUUGACCGCCACAGGUAGGUCGCCAUCUACGGC | 84.6 | 65.9 | 74 | 70.5 | 70.5
15 | GCCGUAGAUGGAAGGAGCGUGUCAAAGUGAUGUUUUGAUUAACUCCCUACGGGAUAGAUGACACAGGUAGGUCGCCAUCUACGGC | 65.2 | 79.3 | 86.9 | 115 | 65.3
16 | GCCGUAGAUUGAAGGAGCGAGUAGGCUCACUUGCGAAGUGAAUAGCAGAGUGAUGUUCUGUCUCAGGUAGGUCGCAAUCUACGGC | 701 | 172 | 388 | 436 | 397
17 | GCCGUAGAUUGAAGGAGCGCCUUCUUACCAAGAGUGAUGUUCUUUGGUACCAUGUUCAGCAGGCAGGUAGGUCGCAAUCUACGGC | 195 | 142 | 188 | 155 | 169
18 | GCCGUAGAUUGAAGGAGCGGCACCCACGGCUCUAACACCUAAGUGAUGUUUAGGUAGUGGUGCCAGGUAGGUCGCAAUCUACGGC | 144 | 153 | 124 | 133 | 131
19 | GCCGUAGAUUGAAGGAGCGGCAUUAACGAUGUUCUGGUAGUGAUGUUACCUCAGCAGACAUGCCAGGUAGGUCGCAAUCUACGGC | 72.5 | 74.6 | 93.6 | 76.6 | 77
20 | GCCUGGGCACGAAGGAGCGCCGUGACAGGUUACUGCCGUGGGCAGUGAUGUUGCUCAAUCUGGCAGGUAGGUCGCGUGCCCAGGC | 137 | 86 | 184 | 107 | 121
21 | GCGCGGCUCAGUGAUGUUGAGCCUCGGAAACGAGGACCGGUACGGCCGCCACUCGUCCGCGCAGCUGAGGCAAAAGCCUCGGCAA [Omei KL Tryp A SS B v1] | 284 | 276 | 319 | 334 | 261
22 | GCGCGUCAUGGCGGCGGUGACUACGCCGAUACCAGCCGGGAAACCGGCCCUUGGCAGCGGCGCGCCGGAGUGAUGUUCCGACAGA [#2 Exclusion - Theophylline A Attempt #4 (HarryS)] | 226 | 275 | 275 | 370 | 214
23 | GCGCGUGUUAAAGGAUAUAGCAGGUGAUACAAGAAAGUGAGUGAUGUUUAUGUAGAUGAUGAUAUGUUAGAAGGUUAACAAGCGC [abcdefghijklmnopq] | 778 | 606 | 847 | 739 | 605

Row | Sequence | apparent KD of K4 kissing-loop reporter (input ligand: FMN 200 uM) [nM] | apparent KD of K4 kissing-loop reporter (input ligand: arginine 13.2 mM) [nM] | apparent KD of K4 kissing-loop reporter (input ligand: none) [nM] | apparent KD of K4 kissing-loop reporter [1] [nM] | apparent KD of K4 kissing-loop reporter [2] [nM]
24 | GCGGGCGGCUGAAGGAGCGGGCGGGCCCGAGUGAUGUUCGGGUGGGCCGUGAGGCCCGGAGCCCAGGUAGGUCGCGGUUCCGUCC [#2 Same State - Arginine B Attempt #19 (HarryS)] | 162 | 113 | 126 | 170 | 147
25 | GCGGGCGGCUGAAGGAGCGGGCGGGCCCGAGUGAUGUUCGGGUGGGCUGUGAGGCCCGGAGCCCAGGUAGGUCGCGGUUCCGCCC [#2 Same State - Arginine B Attempt #26 (HarryS)] | 157 | 107 | 167 | 146 | 133
26 | GCGUGCAAGUCAUGAUGCCCUAUCAGGACUAAGGAUAUAGCGUGACCUAGAAGGUAGCUAGUGAUGUUGGCUGACAUGCUACUGC [theeternabot_exclusion_KL_FMN_A_49] | 482 | 227 | 367 | 376 | 376
27 | GCGUUAGUACUCGAUACCAGACCUCUAGUAGUGAUGUUGCUUGGCGAAGGCCUCGAACGAGUCCCUUGGCAGCGAGGAAAGAGGA [theeternabot_sameState_KL_Theo_B_4] | 506 | 387 | 584 | 376 | 450
28 | GCGUUCAUGGCAGGAUAUAGGUAAAGGAGUGAUGUUCCUUAUGUUGCAUUUACUUAAUCCAACUCCCUAGAAGGGCCAUGAACGC | 123 | 140 | 151 | 139 | 146
29 | GCUACUGCCUUAGGAUAUAGUUGAGUGAUGUUCAAGCAUAUGCAUGGGAAAACCAUGCAUAUGUCCCUAGAAGGGAGGCAGUAGC | 800 | 627 | 859 | 630 | 740
30 | GCUAUGGUAGGAAGGAGCGCGGACGAAAUAUAUCGAGUGAUGUUCGAAUAAUUAAAUAAAACGCAGGUAGGUCGCCUACUAUAGC [Arginine B K4 25] | 116 | 114 | 110 | 120 | 97.6
31 | GCUAUGGUAGGAAGGAGCGCGGACGAUAUUUAUCGAGUGAUGUUCGAAUAAUUAAAUAAAACGCAGGUAGGUCGCCUACUAUAGC [Arginine B K4 27] | 108 | 113 | 99.9 | 102 | 94
32 | GCUAUGGUAGGAAGGAGCGCUACUUUGUUUUUACGAGUGAUGUUCGGAAGCAGAGUGUUAAAGCAGGUAGGUCGCCUACUAUAGC [Arginine B K4 20] | 171 | 154 | 171 | 181 | 197
33 | GCUAUGGUAGGAAGGAGCGCUUAAUUACUAAUAAGAGUGAUGUUCGAUAGUAGGUAUUUAUAGCAGGUAGGUCGCCUACUAUAGC [KL-Arg B23] | 200 | 171 | 176 | 244 | 174
34 | GCUAUGGUUGGAAGGAGCGUUGAAUUGUUAGUAAGAGUGAUGUUCGAUAGUGGACAGUUGUAGCAGGUAGGUCGCCAACUAUAGC [KL-Arg B28] | 329 | 570 | 277 | 560 | 520
35 | GGAACGUUGCGGACUAUCGCAUAAAGUCACCGAGGACCGGUACGGCCGCCACUCGCCAGUGAUGUUGGCGUGUUUGCGCGCUGUA [Isteri] | 99.6 | 91.1 | 101 | 83.6 | 117
36 | GGAAGGAAGGGAAGGAGCGCGCAGGCAGUGAUGUUGCCAAACAAAACAAACAAAACAAAAGCGCAGGUAGGUCGCCCGAAGGACG | 67.8 | 92.8 | 89.7 | 126 | 62.9
37 | GGACCGCCAGUGAUGUUGGAGAUAAACUCCAAGGAUAUGACGAAAGUCAGAAGGUGGUAAUAAGACGUCAAAGACGUCAGGUCCA [FmnA 21 #SwitchBubble #K4Early] | 970 | 206 | 361 | 301 | 266
38 | GGAGAGGUCUUGUUUGGAUGUGUUUAAUGGCGAGGACCGGUACGGCCGCCACUCGGGUGAUGUUAGUGAUGUUGAUGUUGUGAUG ['oo'mullin] | 137 | 131 | 125 | 219 | 116
39 | GGAGGAGAAUAUGAUACCAGCAGAGAGAGAGAGGAAGUAUAGUGAUGUUAUAUGAGAGAAUGCCCUUGGCAGCAUAAGAAGAAGG [SSTheophylB.A] | 150 | 105 | 136 | 123 | 105
40 | GGAGGGAUCUCGGCCGCCACUCAUAAGAAAUGAACCUAAGAAAUAUAGUGAUGUUAUAUAAAGAAGAGGACCGGGAGAAAGGAGG [ExTryptoB.A] | 148 | 171 | 197 | 555 | 171
41 | GGAGGGAUCUCGGCCGCCACUCAUAAGAAAUGAACCUCAGAAAUAUAGUGAUGUUAUAUAAAGAAGAGGACCGGGAGAAAGGAGG [ExTryptoB.B] | 167 | 137 | 161 | 158 | 168
42 | GGAGUGAUGUUCCAUUUUUAAAUCUCCGAUACCAGUAUGGAAACAUACCCUUGGCAGCGGUAAACCGCAGAUUAGGAAACUAGUC [Theophylline A K4 1] | 496 | 682 | 615 | 501 | 561
43 | GGAUAACAGGCAGGAUAUGCUUAGUAGUAAGGCCAUAUAUACGUAUAGAGUGAUGUUUUGUACAAGGCAGAAGGGCUAAAUCCAU [FMN B Excl V2 (+4G)] | 536 | 240 | 421 | 393 | 254
44 | GGAUAGGACAAAGGAUAUGGUAGUGAUGUUACCAAACUGGUUAAACAUGUCAGAAAACUGGCAUGACCAGAAGGUUGUCCUAUCG [FmnBX 27 A11+U75] | 86.4 | 62.8 | 66.3 | 61.1 | 66.9
45 | GGAUAGGACAGAGGAUAUGGACAGUCUACAAAGUAGGCUGAAUAAAUCCUUGAAUGGAGUGAUGUUCCAGAAGGCUGUCCUAUCG [FmnBX 22 #SwitchBubble #StaticStem #Palindromic] | 337 | 384 | 503 | 481 | 426
